Consider 20 molecules from patent publication US20200199241A1 (Chugai, published 2020).

T1: human FcγRIIa(R) (human, UniProt P12318 36-217)
T1 construct: also called FcgRIIaR; FcγRIIa type R
T1 chain: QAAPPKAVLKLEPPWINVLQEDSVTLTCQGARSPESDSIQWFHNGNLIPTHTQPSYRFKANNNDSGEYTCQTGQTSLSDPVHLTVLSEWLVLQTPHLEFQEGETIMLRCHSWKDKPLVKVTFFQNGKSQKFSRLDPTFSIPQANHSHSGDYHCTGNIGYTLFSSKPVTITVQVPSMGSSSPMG

T2: human FcγRIIa(H) (human, UniProt P12318 36-217)
T2 construct: also called FcgRIIaH; FcγRIIa type H
T2 sequence: T1 chain with R133H

T3: human FcγRIIb (human, UniProt P31994 43-217, limits assumed)
T3 construct: also called FcgRIIb
T3 sequence: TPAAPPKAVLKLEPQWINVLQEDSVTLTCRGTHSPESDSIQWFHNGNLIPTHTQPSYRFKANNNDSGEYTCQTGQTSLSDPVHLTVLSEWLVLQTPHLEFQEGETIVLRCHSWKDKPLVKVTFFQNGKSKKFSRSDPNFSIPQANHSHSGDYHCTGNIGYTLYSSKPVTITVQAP

B1: GpH7-B3 variant E269K/GpL16-k0 (antibody, human IgG1)
heavy: not shown
light: DIVMTQSPLSLPVTPGEPASISCQASESLVHSNRNTYLHWYLQKPGQSPQLLIYKVSNRFSGVPDRFSGSGSGTDFTLKISRVEAEDVGVYYCSQNTHVPPTFGQGTKVEIE
notes: copies: 2 + 2
B2: GpH7-B3 variant D265R/GpL16-k0 (antibody, human IgG1)
heavy: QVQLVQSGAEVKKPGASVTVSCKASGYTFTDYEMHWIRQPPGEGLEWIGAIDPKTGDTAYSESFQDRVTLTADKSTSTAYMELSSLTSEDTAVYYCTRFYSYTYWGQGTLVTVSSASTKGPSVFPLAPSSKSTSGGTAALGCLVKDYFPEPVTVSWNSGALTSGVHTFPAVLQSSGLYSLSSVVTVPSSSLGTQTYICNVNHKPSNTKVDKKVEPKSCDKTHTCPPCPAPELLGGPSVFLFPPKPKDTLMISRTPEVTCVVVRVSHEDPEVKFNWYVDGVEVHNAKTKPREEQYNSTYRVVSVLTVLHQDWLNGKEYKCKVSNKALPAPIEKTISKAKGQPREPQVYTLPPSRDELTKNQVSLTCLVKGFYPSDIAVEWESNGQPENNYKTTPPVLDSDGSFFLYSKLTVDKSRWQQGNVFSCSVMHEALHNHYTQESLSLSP
light: B1 light
notes: copies: 2 + 2
B3: GpH7-B3 variant D265W/GpL16-k0 (antibody, human IgG1)
heavy: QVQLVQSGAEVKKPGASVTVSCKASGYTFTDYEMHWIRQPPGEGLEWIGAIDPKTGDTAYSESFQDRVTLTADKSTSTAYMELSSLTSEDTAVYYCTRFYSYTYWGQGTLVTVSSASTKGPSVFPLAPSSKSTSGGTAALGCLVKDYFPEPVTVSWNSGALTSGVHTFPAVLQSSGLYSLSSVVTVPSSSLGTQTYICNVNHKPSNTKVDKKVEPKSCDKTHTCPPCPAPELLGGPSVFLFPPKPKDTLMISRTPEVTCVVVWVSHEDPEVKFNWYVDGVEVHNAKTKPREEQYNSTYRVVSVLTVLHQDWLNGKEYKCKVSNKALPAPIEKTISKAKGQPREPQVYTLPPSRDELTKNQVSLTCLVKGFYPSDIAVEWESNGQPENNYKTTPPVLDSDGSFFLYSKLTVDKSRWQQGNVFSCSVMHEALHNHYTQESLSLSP
light: B1 light
notes: copies: 2 + 2
B4: GpH7-B3 variant E269W/GpL16-k0 (antibody, human IgG1)
heavy: not shown
light: B1 light
notes: copies: 2 + 2
B5: GpH7-B3 variant D265S/GpL16-k0 (antibody, human IgG1)
heavy: not shown
light: B1 light
notes: copies: 2 + 2
B6: GpH7-B3 variant D265T/GpL16-k0 (antibody, human IgG1)
heavy: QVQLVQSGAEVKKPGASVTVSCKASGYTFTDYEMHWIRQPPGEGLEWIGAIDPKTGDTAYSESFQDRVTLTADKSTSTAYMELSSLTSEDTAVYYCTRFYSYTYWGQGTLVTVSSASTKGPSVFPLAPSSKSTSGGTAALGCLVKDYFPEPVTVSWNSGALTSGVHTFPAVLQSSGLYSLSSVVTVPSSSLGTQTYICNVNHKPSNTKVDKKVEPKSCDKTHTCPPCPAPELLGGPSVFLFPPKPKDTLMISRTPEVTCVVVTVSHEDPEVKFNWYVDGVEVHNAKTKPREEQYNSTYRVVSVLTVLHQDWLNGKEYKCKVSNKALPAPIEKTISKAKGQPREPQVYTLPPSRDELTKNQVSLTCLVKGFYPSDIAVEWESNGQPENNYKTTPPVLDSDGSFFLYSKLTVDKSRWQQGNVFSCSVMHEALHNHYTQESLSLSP
light: B1 light
notes: copies: 2 + 2
B7: GpH7-B3 variant D265V/GpL16-k0 (antibody, human IgG1)
heavy: not shown
light: B1 light
notes: copies: 2 + 2
B8: GpH7-B3 variant D265Y/GpL16-k0 (antibody, human IgG1)
heavy: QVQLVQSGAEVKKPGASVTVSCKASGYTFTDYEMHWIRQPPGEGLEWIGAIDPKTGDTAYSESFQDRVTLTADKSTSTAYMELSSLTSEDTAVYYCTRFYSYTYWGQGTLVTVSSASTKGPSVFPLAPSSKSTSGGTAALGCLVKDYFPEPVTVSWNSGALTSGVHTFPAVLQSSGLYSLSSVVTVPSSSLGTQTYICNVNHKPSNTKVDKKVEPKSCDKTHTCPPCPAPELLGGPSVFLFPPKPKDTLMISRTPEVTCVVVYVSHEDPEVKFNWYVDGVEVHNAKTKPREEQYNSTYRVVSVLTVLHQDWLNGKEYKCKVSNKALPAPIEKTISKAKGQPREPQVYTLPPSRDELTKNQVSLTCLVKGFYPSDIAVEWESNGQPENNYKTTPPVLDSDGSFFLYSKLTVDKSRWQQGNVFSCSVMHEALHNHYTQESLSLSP
light: B1 light
notes: copies: 2 + 2
B9: GpH7-B3 variant D265L/GpL16-k0 (antibody, human IgG1)
heavy: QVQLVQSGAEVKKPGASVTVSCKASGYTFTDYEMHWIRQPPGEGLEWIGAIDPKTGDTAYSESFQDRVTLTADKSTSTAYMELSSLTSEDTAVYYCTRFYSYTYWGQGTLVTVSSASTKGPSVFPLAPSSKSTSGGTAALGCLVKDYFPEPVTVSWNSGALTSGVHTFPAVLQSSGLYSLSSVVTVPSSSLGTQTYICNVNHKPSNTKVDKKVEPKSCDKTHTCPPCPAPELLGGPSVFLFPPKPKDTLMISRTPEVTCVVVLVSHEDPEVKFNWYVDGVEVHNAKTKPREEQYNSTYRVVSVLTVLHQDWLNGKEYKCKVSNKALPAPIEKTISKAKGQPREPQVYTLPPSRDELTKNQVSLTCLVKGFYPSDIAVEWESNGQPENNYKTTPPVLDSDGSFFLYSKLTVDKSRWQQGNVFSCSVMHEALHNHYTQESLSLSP
light: B1 light
notes: copies: 2 + 2
B10: GpH7-B3 variant G237A/GpL16-k0 (antibody, human IgG1)
heavy: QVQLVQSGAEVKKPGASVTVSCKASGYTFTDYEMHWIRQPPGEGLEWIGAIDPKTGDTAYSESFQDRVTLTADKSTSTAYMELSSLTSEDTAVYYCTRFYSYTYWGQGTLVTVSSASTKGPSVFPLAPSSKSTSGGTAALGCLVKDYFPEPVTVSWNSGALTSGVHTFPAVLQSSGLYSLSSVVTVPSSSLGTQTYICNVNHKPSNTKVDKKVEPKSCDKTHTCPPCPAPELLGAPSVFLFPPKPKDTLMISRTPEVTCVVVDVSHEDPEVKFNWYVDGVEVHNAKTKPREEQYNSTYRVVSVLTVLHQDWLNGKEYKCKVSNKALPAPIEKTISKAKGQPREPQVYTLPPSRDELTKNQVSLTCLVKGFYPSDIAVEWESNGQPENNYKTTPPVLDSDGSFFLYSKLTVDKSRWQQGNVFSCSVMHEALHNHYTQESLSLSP
light: B1 light
notes: copies: 2 + 2
B11: GpH7-B3 variant S239W/GpL16-k0 (antibody, human IgG1)
heavy: not shown
light: B1 light
notes: copies: 2 + 2
B12: GpH7-B3 variant D265Q/GpL16-k0 (antibody, human IgG1)
heavy: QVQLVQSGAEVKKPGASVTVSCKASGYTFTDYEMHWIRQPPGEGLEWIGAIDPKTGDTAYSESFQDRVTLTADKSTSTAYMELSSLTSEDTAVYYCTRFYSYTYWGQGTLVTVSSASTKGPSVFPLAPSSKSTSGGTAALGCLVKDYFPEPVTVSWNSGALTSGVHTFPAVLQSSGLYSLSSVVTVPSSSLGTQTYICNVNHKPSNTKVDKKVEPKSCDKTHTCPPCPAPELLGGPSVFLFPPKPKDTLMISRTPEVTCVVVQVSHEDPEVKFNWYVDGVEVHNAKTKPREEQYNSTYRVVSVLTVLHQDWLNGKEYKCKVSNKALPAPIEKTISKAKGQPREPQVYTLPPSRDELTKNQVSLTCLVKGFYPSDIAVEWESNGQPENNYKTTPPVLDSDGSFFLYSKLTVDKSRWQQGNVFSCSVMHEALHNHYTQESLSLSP
light: B1 light
notes: copies: 2 + 2
B13: GpH7-B3 variant D265I/GpL16-k0 (antibody, human IgG1)
heavy: not shown
light: B1 light
notes: copies: 2 + 2
B14: GpH7-B3 variant D265N/GpL16-k0 (antibody, human IgG1)
heavy: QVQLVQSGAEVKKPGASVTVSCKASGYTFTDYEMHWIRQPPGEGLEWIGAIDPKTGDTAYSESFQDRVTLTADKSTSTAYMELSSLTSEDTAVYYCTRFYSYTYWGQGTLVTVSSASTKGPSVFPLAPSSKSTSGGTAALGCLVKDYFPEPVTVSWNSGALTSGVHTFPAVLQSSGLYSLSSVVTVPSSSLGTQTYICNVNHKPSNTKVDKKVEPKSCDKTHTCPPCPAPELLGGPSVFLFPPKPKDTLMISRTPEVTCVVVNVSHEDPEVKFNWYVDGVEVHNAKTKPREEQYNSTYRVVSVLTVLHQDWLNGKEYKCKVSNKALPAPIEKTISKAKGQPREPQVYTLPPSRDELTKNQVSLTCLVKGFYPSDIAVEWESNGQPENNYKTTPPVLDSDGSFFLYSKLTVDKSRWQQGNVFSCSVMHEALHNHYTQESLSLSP
light: B1 light
notes: copies: 2 + 2
B15: GpH7-B3 variant D265H/GpL16-k0 (antibody, human IgG1)
heavy: not shown
light: B1 light
notes: copies: 2 + 2
B16: GpH7-B3 variant D265A/GpL16-k0 (antibody, human IgG1)
heavy: not shown
light: B1 light
notes: copies: 2 + 2
B17: GpH7-B3 variant D265K/GpL16-k0 (antibody, human IgG1)
heavy: not shown
light: B1 light
notes: copies: 2 + 2
B18: GpH7-B3 variant D265G/GpL16-k0 (antibody, human IgG1)
heavy: not shown
light: B1 light
notes: copies: 2 + 2
B19: GpH7-B3 variant D265F/GpL16-k0 (antibody, human IgG1)
heavy: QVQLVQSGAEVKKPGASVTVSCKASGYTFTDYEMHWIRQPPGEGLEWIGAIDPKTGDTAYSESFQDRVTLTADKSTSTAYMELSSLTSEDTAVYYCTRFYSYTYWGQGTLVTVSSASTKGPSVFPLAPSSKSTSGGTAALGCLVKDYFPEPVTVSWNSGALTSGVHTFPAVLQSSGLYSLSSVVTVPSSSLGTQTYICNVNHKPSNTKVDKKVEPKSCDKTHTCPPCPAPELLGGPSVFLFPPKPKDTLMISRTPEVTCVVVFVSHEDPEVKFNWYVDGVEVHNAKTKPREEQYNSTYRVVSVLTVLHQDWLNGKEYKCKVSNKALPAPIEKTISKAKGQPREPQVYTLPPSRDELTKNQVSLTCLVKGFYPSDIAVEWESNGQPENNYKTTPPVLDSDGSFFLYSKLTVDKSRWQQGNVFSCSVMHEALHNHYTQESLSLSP
light: B1 light
notes: copies: 2 + 2
B20: GpH7-B3 variant D265M/GpL16-k0 (antibody, human IgG1)
heavy: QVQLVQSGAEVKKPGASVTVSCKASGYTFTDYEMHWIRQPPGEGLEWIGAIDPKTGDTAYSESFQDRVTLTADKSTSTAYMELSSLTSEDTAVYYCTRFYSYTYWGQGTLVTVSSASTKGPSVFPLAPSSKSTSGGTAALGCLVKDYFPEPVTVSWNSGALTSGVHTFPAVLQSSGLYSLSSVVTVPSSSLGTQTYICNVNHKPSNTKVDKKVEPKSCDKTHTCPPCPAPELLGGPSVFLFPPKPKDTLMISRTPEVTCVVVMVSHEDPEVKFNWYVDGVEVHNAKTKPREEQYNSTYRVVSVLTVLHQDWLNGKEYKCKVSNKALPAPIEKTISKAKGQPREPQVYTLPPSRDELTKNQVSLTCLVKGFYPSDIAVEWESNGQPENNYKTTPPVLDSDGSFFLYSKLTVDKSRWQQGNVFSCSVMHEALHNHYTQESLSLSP
light: B1 light
notes: copies: 2 + 2

Residue numbers refer to the chain shown, from its start. Names and notes keep the numbering of the source.

For one test, the target named is T4, human FcγRIa (human, UniProt P12314 16-292, limits assumed).
T4 construct: also called FcgRIa; FcγRI (CD64)
T4 sequence (P12314 16-292 limits assumed): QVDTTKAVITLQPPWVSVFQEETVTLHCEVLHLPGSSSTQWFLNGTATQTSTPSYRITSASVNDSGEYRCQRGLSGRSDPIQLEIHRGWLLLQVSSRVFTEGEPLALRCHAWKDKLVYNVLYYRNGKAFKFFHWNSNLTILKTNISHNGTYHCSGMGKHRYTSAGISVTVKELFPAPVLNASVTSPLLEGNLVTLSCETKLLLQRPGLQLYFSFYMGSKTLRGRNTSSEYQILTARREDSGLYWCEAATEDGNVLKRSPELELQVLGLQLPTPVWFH
The test can be described thus: SPR (Biacore).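 Also: antibody variants captured on sensor chip, Fcγ receptor flowed over at 25 °C, bound receptor normalized to amount of captured antibody, expressed relative to reference antibody set as 100.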
B1: the relative binding activity is 71 % of GpH7-B3/GpL16-k0.
In the case of B2, the relative binding activity was 5 % of GpH7-B3/GpL16-k0.
In the case of B3, the relative binding activity is 3 % of GpH7-B3/GpL16-k0.
For B4, the relative binding activity is 96 % of GpH7-B3/GpL16-k0.
As for B5, the relative binding activity was 20 % of GpH7-B3/GpL16-k0.
Still for that read-out and setting: next, B6: 48 % of GpH7-B3/GpL16-k0; B7: 3 % of GpH7-B3/GpL16-k0; B8: 5 % of GpH7-B3/GpL16-k0.
Consider B9, for which the relative binding activity was 7 % of GpH7-B3/GpL16-k0.
Still for that read-out and setting: next, B10: 45 % of GpH7-B3/GpL16-k0; B11: 69 % of GpH7-B3/GpL16-k0.
On the same count and under the same terms, next, B12: 67 % of GpH7-B3/GpL16-k0; B13: 2 % of GpH7-B3/GpL16-k0.
Same read-out and setting: then B14, with 3 % of GpH7-B3/GpL16-k0; and B15, with 59 % of GpH7-B3/GpL16-k0.
For B16, the relative binding activity was 36 % of GpH7-B3/GpL16-k0.
On the same count and under the same terms, next, B17: 8 % of GpH7-B3/GpL16-k0; B18: 11 % of GpH7-B3/GpL16-k0.
Regarding B19, the relative binding activity is 2 % of GpH7-B3/GpL16-k0.
The same measure, in the same setting: next, B20: 17 % of GpH7-B3/GpL16-k0.

The target in another test is T1, human FcγRIIa(R). Description: SPR (Biacore).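 Also: antibody variants captured on sensor chip, Fcγ receptor flowed over at 25 °C, bound receptor normalized to amount of captured antibody, expressed relative to reference antibody set as 100.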 In general terms: Surface plasmon resonance follows binding to a sensor surface in real time, without labels.
On to B1, for which the relative binding activity was 4 % of GpH7-B3/GpL16-k0.
Regarding B2, the relative binding activity was -1 % of GpH7-B3/GpL16-k0.
The same measure, in the same setting: next, B3: -1 % of GpH7-B3/GpL16-k0; B4: 21 % of GpH7-B3/GpL16-k0; B5: 0 % of GpH7-B3/GpL16-k0.
Same read-out and setting: next, B6: 2 % of GpH7-B3/GpL16-k0; B7: -1 % of GpH7-B3/GpL16-k0.
On the same count and under the same terms, next, B8: -1 % of GpH7-B3/GpL16-k0; B9: 0 % of GpH7-B3/GpL16-k0; B10: 85 % of GpH7-B3/GpL16-k0.
B11: the relative binding activity is 19 % of GpH7-B3/GpL16-k0.
The same measure, in the same setting: next, B12: 13 % of GpH7-B3/GpL16-k0; B13: -1 % of GpH7-B3/GpL16-k0.
Still for that read-out and setting: next, B14: -1 % of GpH7-B3/GpL16-k0; B15: 26 % of GpH7-B3/GpL16-k0; B16: 3 % of GpH7-B3/GpL16-k0.
Regarding B17, the relative binding activity was -1 % of GpH7-B3/GpL16-k0.
On the same count and under the same terms, next, B18: 1 % of GpH7-B3/GpL16-k0; B19: -1 % of GpH7-B3/GpL16-k0.
For B20, the relative binding activity is -1 % of GpH7-B3/GpL16-k0.

Another test addresses T2, human FcγRIIa(H). Description: SPR (Biacore).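 Also: antibody variants captured on sensor chip, Fcγ receptor flowed over at 25 °C, bound receptor normalized to amount of captured antibody, expressed relative to reference antibody set as 100.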
For B1, the relative binding activity is 22 % of GpH7-B3/GpL16-k0.
Same read-out and setting: next, B2: 0 % of GpH7-B3/GpL16-k0.
On the same count and under the same terms, next, B3: 0 % of GpH7-B3/GpL16-k0; B4: 30 % of GpH7-B3/GpL16-k0; B5: 2 % of GpH7-B3/GpL16-k0.
Same read-out and setting: then B6, with 5 % of GpH7-B3/GpL16-k0; and B7, with 0 % of GpH7-B3/GpL16-k0.
As to B8, the relative binding activity was 0 % of GpH7-B3/GpL16-k0.
Still for that read-out and setting: then B9, with 0 % of GpH7-B3/GpL16-k0; and B12, with 13 % of GpH7-B3/GpL16-k0; and B13, with 0 % of GpH7-B3/GpL16-k0.
Still for that read-out and setting: next, B14: 0 % of GpH7-B3/GpL16-k0.
Same read-out and setting: then B15, with 18 % of GpH7-B3/GpL16-k0; and B16, with 5 % of GpH7-B3/GpL16-k0.
Regarding B17, the relative binding activity is 0 % of GpH7-B3/GpL16-k0.
Consider B18, for which the relative binding activity is 1 % of GpH7-B3/GpL16-k0.
On the same count and under the same terms, then B19, with 0 % of GpH7-B3/GpL16-k0; and B20, with 0 % of GpH7-B3/GpL16-k0.

A further test deals with T3, human FcγRIIb. The test can be described thus: SPR (Biacore).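 Also: antibody variants captured on sensor chip, Fcγ receptor flowed over at 25 °C, bound receptor normalized to amount of captured antibody, expressed relative to reference antibody set as 100.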
With B1, the relative binding activity was 1 % of GpH7-B3/GpL16-k0.
On the same count and under the same terms, next, B2: -1 % of GpH7-B3/GpL16-k0; B3: -2 % of GpH7-B3/GpL16-k0.
On the same count and under the same terms, next, B4: 13 % of GpH7-B3/GpL16-k0; B5: 1 % of GpH7-B3/GpL16-k0; B6: 1 % of GpH7-B3/GpL16-k0.
Regarding B7, the relative binding activity is -1 % of GpH7-B3/GpL16-k0.
The same measure, in the same setting: next, B8: -2 % of GpH7-B3/GpL16-k0.
Take B9: the relative binding activity is 0 % of GpH7-B3/GpL16-k0.
As for B10, the relative binding activity was 49 % of GpH7-B3/GpL16-k0.
The same measure, in the same setting: next, B11: 17 % of GpH7-B3/GpL16-k0.
Still for that read-out and setting: then B12, with 4 % of GpH7-B3/GpL16-k0; and B13, with -2 % of GpH7-B3/GpL16-k0.
On the same count and under the same terms, then B14, with -2 % of GpH7-B3/GpL16-k0; and B15, with 11 % of GpH7-B3/GpL16-k0.
On to B16, for which the relative binding activity is 1 % of GpH7-B3/GpL16-k0.
Take B17: the relative binding activity is 0 % of GpH7-B3/GpL16-k0.
The same measure, in the same setting: next, B18: -1 % of GpH7-B3/GpL16-k0.
On the same count and under the same terms, next, B19: -2 % of GpH7-B3/GpL16-k0; B20: -2 % of GpH7-B3/GpL16-k0.

The target in another test is T5, human FcγRIIIa(F) (human, UniProt P08637 17-208, limits assumed).
T5 construct: also called FcgRIIIaF; allotype F158
T5 sequence (P08637 other isoform, or with tags, fused parts or gaps limits assumed): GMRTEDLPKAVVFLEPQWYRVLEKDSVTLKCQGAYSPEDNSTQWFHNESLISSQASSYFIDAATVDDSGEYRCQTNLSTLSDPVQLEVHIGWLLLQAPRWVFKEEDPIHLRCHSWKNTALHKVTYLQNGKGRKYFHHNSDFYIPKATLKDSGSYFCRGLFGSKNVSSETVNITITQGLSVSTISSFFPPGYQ
The test can be described thus: SPR (Biacore).
B1: the relative binding activity is 11 % of GpH7-B3/GpL16-k0.
Take B2: the relative binding activity was -1 % of GpH7-B3/GpL16-k0.
Still for that read-out and setting: next, B3: -2 % of GpH7-B3/GpL16-k0; B5: -2 % of GpH7-B3/GpL16-k0.
Regarding B6, the relative binding activity is -2 % of GpH7-B3/GpL16-k0.
Take B7: the relative binding activity was -1 % of GpH7-B3/GpL16-k0.
On the same count and under the same terms, next, B8: -1 % of GpH7-B3/GpL16-k0.
Still for that read-out and setting: then B9, with -1 % of GpH7-B3/GpL16-k0; and B10, with 4 % of GpH7-B3/GpL16-k0.
The same measure, in the same setting: then B11, with 19 % of GpH7-B3/GpL16-k0; and B12, with -1 % of GpH7-B3/GpL16-k0.
In the case of B13, the relative binding activity was -1 % of GpH7-B3/GpL16-k0.
Still for that read-out and setting: next, B14: -1 % of GpH7-B3/GpL16-k0.
Still for that read-out and setting: then B15, with 0 % of GpH7-B3/GpL16-k0.
Still for that read-out and setting: next, B16: -1 % of GpH7-B3/GpL16-k0; B17: -2 % of GpH7-B3/GpL16-k0.
For B18, the relative binding activity is -1 % of GpH7-B3/GpL16-k0.
On to B19, for which the relative binding activity was -2 % of GpH7-B3/GpL16-k0.
As for B20, the relative binding activity is -1 % of GpH7-B3/GpL16-k0.
